Test [1] concerns the target 1065 toxin (IPF_1065, RelE/ParE-like toxin), C-terminally His-tagged (Microcystis aeruginosa PCC 7806). In words: SEC-MALS. In general terms: SEC sorts molecules by how far they enter the pores of the column.
Test [2] has as its target 1067 antitoxin (IPF_1067, ParD-like antitoxin), C-terminally His-tagged (Microcystis aeruginosa PCC 7806). Briefly: […]; 20 mM HEPES pH 7.4, 150 mM NaCl, room temperature.

For two substances, stoichiometry N (antitoxin per toxin) and stoichiometry N results are on record in paper PMC7935541.

For the substance “1067 antitoxin (IPF_1067), non-tagged, coexpressed with the 1065 toxin (natural protein)”, the stoichiometry N (antitoxin per toxin) in test [1] amounted to 2. Consider “1067 antitoxin (IPF_1067, ParD-like antitoxin), C-terminally His-tagged (natural protein)”, for which, in test [2], the stoichiometry N came out at 2.

The stoichiometry N is the number of molecules, sites or subunits per partner or assembly.
